# Values quoted from earlier work as cited in paper PMC11695321.
# Tests used:
# Assay in all cases: SPR
# [1] = biological target: IKKα (Homo sapiens) (UniProt O15111)
# [2] = biological target: IKKβ (Homo sapiens) (UniProt O14920)
# [3] = biological target: NF-κB p50 (Homo sapiens) (UniProt P19838)
# Sequence of UniProt P19838 (P19838 1-433): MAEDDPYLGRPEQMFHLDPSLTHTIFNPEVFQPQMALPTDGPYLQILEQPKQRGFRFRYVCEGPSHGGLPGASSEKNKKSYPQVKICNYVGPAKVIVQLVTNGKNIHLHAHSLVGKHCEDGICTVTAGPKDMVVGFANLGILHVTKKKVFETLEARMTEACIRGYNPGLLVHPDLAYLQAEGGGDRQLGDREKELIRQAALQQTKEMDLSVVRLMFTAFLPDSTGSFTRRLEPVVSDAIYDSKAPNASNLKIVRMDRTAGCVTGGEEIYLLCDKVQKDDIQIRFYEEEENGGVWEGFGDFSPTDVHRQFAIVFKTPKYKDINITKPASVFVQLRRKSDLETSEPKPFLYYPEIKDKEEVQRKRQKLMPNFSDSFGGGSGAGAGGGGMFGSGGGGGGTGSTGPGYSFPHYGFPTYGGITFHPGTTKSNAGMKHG
# Sequence of UniProt O15111 (O15111 whole entry): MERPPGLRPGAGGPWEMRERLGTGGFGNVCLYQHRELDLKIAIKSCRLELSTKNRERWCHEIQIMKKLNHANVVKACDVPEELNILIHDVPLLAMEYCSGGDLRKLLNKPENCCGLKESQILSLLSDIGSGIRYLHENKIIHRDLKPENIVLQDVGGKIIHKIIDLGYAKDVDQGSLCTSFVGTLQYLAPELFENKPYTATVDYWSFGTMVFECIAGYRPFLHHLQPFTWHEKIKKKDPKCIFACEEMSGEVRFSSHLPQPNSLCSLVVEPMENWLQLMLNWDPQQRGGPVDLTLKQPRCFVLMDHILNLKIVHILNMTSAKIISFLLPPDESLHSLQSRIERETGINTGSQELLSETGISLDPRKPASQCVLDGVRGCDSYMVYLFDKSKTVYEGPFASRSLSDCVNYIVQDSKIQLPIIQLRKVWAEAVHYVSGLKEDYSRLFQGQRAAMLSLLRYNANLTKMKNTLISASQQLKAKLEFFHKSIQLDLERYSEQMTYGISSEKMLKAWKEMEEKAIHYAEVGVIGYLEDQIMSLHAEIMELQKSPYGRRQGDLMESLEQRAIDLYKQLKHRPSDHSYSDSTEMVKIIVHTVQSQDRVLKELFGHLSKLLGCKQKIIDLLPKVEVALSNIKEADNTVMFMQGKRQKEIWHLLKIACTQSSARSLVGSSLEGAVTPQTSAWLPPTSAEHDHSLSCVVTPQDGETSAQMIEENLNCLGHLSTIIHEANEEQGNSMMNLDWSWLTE
# Sequence of UniProt O14920 (O14920 whole entry): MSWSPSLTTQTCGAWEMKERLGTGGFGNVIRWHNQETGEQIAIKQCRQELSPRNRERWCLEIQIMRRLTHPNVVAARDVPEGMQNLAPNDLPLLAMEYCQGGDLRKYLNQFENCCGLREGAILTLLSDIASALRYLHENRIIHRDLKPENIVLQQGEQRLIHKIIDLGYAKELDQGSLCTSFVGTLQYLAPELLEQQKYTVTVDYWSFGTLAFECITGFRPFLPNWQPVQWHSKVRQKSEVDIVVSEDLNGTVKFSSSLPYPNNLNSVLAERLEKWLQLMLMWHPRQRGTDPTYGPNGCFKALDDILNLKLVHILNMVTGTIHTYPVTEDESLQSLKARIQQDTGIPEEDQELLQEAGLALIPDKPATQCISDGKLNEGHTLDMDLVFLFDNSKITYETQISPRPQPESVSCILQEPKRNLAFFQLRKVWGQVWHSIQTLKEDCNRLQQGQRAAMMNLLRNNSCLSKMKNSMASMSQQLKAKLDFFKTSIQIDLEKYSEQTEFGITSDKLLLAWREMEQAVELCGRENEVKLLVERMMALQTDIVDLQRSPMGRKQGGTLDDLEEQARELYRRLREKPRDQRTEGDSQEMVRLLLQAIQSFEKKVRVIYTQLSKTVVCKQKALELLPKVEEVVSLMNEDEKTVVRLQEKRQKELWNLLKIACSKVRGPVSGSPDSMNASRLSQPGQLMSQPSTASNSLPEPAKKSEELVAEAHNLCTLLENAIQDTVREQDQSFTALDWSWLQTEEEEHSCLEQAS
substance,measurement,setting,value
melittin (from UniProt P01501),Kd,[1],4600 nM
same,Kd,[2],1.34 nM
same,Kd,[3],1.01 nM
